Measured values: IntAct's records for PubMed 20551905

B1: SUN domain-containing protein 2 (Homo sapiens), Q9UH99 (parent)
chain: MSRRSQRLTRYSQGDDDGSSSSGGSSVAGSQSTLFKDSPLRTLKRKSSNMKRLSPAPQLGPSSDAHTSYYSESLVHESWFPPRSSLEELHGDANWGEDLRVRRRRGTGGSESSRASGLVGRKATEDFLGSSSGYSSEDDYVGYSDVDQQSSSSRLRSAVSRAGSLLWMVATSPGRLFRLLYWWAGTTWYRLTTAASLLDVFVLTRRFSSLKTFLWFLLPLLLLTCLTYGAWYFYPYGLQTFHPALVSWWAAKDSRRPDEGWEARDSSPHFQAEQRVMSRVHSLERRLEALAAEFSSNWQKEAMRLERLELRQGAPGQGGGGGLSHEDTLALLEGLVSRREAALKEDFRRETAARIQEELSALRAEHQQDSEDLFKKIVRASQESEARIQQLKSEWQSMTQESFQESSVKELRRLEDQLAGLQQELAALALKQSSVAEEVGLLPQQIQAVRDDVESQFPAWISQFLARGGGGRVGLLQREEMQAQLRELESKILTHVAEMQGKSAREAAASLSLTLQKEGVIGVTEEQVHHIVKQALQRYSEDRIGLADYALESGGASVISTRCSETYETKTALLSLFGIPLWYHSQSPRVILQPDVHPGNCWAFQGPQGFAVVRLSARIRPTAVTLEHVPKALSPNSTISSAPKDFAIFGFDEDLQQEGTLLGKFTYDQDGEPIQTFHFQAPTMATYQVVELRILTNWGHPEYTCIYRFRVHGEPAH

Variants of: B1
Conditions: with copb_human COPB1, P53618
copb_human COPB1, P53618, sequence (P53618 whole entry): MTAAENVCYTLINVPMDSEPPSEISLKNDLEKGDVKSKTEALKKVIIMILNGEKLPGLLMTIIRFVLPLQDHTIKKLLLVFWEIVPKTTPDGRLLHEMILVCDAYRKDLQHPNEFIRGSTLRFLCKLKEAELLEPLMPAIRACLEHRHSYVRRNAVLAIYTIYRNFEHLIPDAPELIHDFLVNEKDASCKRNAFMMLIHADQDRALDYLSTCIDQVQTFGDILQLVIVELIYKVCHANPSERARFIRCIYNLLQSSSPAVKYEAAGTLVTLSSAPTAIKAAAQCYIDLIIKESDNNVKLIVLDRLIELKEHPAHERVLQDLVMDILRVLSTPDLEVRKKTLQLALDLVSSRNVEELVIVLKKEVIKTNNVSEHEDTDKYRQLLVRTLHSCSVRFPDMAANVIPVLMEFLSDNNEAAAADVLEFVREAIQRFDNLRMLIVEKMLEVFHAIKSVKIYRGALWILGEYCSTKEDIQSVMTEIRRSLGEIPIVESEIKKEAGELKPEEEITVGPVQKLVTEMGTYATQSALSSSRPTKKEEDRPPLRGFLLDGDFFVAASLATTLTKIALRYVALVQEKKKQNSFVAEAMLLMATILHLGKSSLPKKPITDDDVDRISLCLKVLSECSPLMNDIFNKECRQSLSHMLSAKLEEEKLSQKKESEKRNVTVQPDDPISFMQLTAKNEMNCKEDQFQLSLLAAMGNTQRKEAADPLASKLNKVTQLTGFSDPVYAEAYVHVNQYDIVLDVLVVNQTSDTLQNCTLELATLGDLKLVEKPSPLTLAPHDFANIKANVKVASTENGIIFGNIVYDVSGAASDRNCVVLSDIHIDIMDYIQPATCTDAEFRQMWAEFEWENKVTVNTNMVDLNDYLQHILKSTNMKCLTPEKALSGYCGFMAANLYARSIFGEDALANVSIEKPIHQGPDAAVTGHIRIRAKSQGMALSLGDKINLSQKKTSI
R45A was tested, and the “effect of a mutation on the interaction” value was “disrupting interaction”.
For R41A, the “effect of a mutation on the interaction” value was “disrupting interaction”.
In the case of K46A, the “effect of a mutation on the interaction” value is reported as “disrupting interaction”.
With R102A;R103A;R104A;R105A the “effect of a mutation on the interaction” value was “disrupting interaction”.
With R52A the “effect of a mutation on the interaction” value was “disrupting interaction”.
In the case of K44A, the “effect of a mutation on the interaction” value is reported as “disrupting interaction”.
In the case of K51A, the “effect of a mutation on the interaction” value is reported as “disrupting interaction”.
